B1: gp100/pmel17 506-522 (peptide)
peptide: EGDAFELTVSCQGGLPK
notes: gp100/pmel17 melanoma-associated antigen, residues 506-522; also called gp100506-522; g506; source: synthetic peptide (FMOC chemistry, UPCI Peptide Synthesis Facility), >90% pure
B2: gp100/pmel17 283-304 (peptide)
peptide: PGPVTAQVVLQAAIPLTSCGSS
notes: gp100/pmel17 melanoma-associated antigen, residues 283-304; also called gp100283-304; g283; source: synthetic peptide (FMOC chemistry, UPCI Peptide Synthesis Facility), >90% pure
B3: gp100/pmel17 167-189 (peptide)
peptide: VSGLSIGTGRAMLGTHTMEVTVY
notes: gp100/pmel17 melanoma-associated antigen, residues 167-189; also called gp100167-179; g167; source: synthetic peptide (FMOC chemistry, UPCI Peptide Synthesis Facility), >90% pure
B4: gp100/pmel17 6-26 (peptide)
peptide: KRCLLHLAVIGALLAVGATKV
notes: gp100/pmel17 melanoma-associated antigen, residues 6-26; also called gp1006-26; g6; source: synthetic peptide (FMOC chemistry, UPCI Peptide Synthesis Facility), >90% pure
B5: gp100/pmel17 540-561 (peptide)
peptide: LCQPVLPSPACQLVLHQILKGG
notes: gp100/pmel17 melanoma-associated antigen, residues 540-561; also called gp100540-561; g540; source: synthetic peptide (FMOC chemistry, UPCI Peptide Synthesis Facility), >90% pure

Biological target: HLA-DRB1*0401 (human)
Experiment: radioligand binding; solid-state competitive-binding assay (as in Southwood et al, 1998): the peptide blocks the binding of a radio-labeled reference peptide to purified HLA-DR4 complexes; IC50 in nM
Conditions: both partners purified

Binder	IC50 [µM]
B1	3.21
B2	2.89

Biological target: HLA-DRB1*0404 (human)
Experiment: as above
Conditions: both partners purified

Binder	IC50 [µM]
B1	3.55
B3	0.372
B4	0.335
B5	0.614

Source: paper PMC2363969 (British Journal of Cancer, 2001)
